Source: patent US20190169269

Key:
[1] = biological target: T1, Elactiv′ polypeptide (polypeptide derived from tropoelastin, Cys-Flag-tagged)
T1 chain: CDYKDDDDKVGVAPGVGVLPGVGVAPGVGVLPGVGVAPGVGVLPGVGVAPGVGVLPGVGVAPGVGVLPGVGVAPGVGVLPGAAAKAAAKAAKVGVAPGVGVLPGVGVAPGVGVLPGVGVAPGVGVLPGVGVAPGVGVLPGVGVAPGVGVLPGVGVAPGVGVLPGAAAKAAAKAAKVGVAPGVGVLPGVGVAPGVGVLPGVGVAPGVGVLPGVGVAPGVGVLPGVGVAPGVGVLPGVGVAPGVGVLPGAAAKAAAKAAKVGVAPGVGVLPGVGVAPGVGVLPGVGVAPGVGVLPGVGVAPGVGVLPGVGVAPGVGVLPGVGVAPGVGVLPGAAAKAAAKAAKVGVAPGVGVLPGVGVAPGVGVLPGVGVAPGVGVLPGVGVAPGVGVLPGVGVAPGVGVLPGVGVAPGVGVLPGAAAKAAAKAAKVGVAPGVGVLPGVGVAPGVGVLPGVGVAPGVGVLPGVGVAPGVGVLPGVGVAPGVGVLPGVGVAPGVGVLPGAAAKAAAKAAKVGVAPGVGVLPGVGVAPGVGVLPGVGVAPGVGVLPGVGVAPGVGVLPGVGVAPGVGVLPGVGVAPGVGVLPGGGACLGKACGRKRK

[2] = biological target: T2, recombinant human tropoelastin (hTE) (Sigma-Aldrich), P15502
T2 chain: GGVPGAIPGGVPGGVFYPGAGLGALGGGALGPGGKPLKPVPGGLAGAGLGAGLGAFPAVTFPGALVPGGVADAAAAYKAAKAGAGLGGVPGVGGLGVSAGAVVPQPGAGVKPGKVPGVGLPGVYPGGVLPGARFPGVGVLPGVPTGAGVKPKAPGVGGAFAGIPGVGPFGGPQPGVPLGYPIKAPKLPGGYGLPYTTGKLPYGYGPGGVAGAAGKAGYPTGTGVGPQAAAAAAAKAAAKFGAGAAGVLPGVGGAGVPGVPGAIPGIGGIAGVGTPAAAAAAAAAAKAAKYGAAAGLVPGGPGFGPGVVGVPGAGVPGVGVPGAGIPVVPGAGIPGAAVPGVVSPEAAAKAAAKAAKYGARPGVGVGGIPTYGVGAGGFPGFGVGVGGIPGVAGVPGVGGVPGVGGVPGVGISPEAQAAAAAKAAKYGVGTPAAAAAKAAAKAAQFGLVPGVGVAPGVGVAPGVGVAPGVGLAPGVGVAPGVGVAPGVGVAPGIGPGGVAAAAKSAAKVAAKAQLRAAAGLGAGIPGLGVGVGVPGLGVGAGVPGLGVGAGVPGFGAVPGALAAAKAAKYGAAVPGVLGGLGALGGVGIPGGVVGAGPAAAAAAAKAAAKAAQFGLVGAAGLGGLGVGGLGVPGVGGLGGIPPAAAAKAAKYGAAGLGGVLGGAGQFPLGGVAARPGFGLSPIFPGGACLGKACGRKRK

B1: recombinant human MMP-12 (protein)
chain: GPVWRKHYITYRINNYTPDMNREDVDYAIRKAFQVWSNVTPLKFSKINTGMADILVVFARGAHGDFHAFDGKGGILAHAFGPGSGIGGDAHFDEDEFWTTHSGGTNLFLTAVHEIGHSLGLGHSSDPKAVMFPTYKYVDINTFRLSADDIRGIQSLYGDPKENQRLPNPDNSEPALCDPNLSFDAVTTVGNKIFFFKDRFFWLKVSERPKTSVNLISSLWPTLPSGIEAAYEIEARNQVFLFKDDKYWLISNLRPEPNYPKSIHSFGFPNFVKKIDAAVFNPRFYRTYFFVDNQYWRYDERRQMMDPGYPKLITKNFQGIGPKIDAVFYSKNKYYYFFQGSNQFEYDFLLQRITKTLKSNSWFGC
- kinetics of degradation by rhMMP-12, Western blot [1]: Elactiv′ is progressively degraded by MMP-12, but to a lesser extent than human tropoelastin
- kinetics of degradation by rhMMP-12, Western blot [2]: Elactiv′ is progressively degraded by MMP-12, but to a lesser extent than human tropoelastin
